This is an account of results in the nanobody polyreactivity screen of Harvey et al. (2022).

This data set in a line: yeast display, Sf9 membrane polyspecificity reagent, FACS + sequencing; frameworks hold sequencing errors. The procedure, abridged:
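In a synthetic yeast display library (Saccharomyces cerevisiae BJ5465), nanobody expression was induced with galactose for 36–48 hours. FACS gates were set low and high (top ~1%) using anti-HA fluorescence for expression and streptavidin fluorescence for binding of the Sf9 membrane reagent. Each polyreactivity label is drawn from the gate of origin.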
Take “QFQLVESGGGLVQAGGRLRLSCAASRSTFVLYDMGWYRQAPGKERELVAAISRSGDSTYYADSVKGRYTISRDNAKNTVYLQMNSLKPEDTAVYYCAAKRRISTGMDYWGQGTQVTVSS”: the “polyreactivity (PSR sort gate)” value is given as “high polyreactivity”.
The entry for “QVQLVESGGGLVQAGGSLRLSCAASGRTFQINAMGWYRQAPGKERELVAAITWSGGSTYYADSVKGRFTISRDNAKNTVYLQMNSLKPEDTAVYYCNKRYRAYATLNLIAGYNYWGQGTQVTVSS” is “low polyreactivity”; for “QVQLVESVGGLVQAGGSLRLSCAASGFTIYPYAMGWYRQAPGKERELVAAISSSGGNTYYADSVKGRFTISRDNAKNTVYLQMNSLKPEDTAVYYCNARVYRWAIAPDDDSWGQGTQVTVSS” it is “high polyreactivity”.
Consider “QVQLVESGGGLVQAGGSLRLSCPASASNYAAYTMAWYRQAPGKERECVAAITSGGSTNYADSVKGRFTISRDNAKNTVYLQMNSLKPEDTAVYYCAAEDLNYYFWRSLWFGIYDDWGQGTQVTVSS”, for which the “polyreactivity (PSR sort gate)” value is “low polyreactivity”.
The value for “QVQHVESGGGLVQAGGSLRLSCAASGITFVPNAMGWYRQAHGKERELVAAITSGDSTNYADSVKGRFTISRDNAKNTVYLQMNSLKPEDTAVYYCAADSWAQRPNQGRVSLHYYWGQGTLVTVSS” was “low polyreactivity”; that for “QVQLVESGGGLVQAGGSLRLSCAASGRIFAKYAMGWYRQAPGKERELVAAISLSGGRTYYADSVKGRFTISRDNAKNTVYLQMNSLKPEDTAVYYCAAEFYPIRYYGGYDYWGQGTQVTVSS” was “low polyreactivity”; that for “QVQLVESGGGLVQAGGSLRLSCAASGSTSSTYAKGWYRQAPGKERELVATINWDGASTYYADSVKGRFTISRDNATNTVYLQMNSLKPEDTAVYYCAAQSGAVHFLEDDYWGQGTQVTVSS” was “low polyreactivity”.
For “QVQLVESGGGLVQAGGSHSLRCAASGSIFYRYDRGWYRQAPGTARELVAAITRSGGSTYYADSVKGRFTISRDNAKNTVYLQMNSLKPEDTAVYFCNASIDRYRLLIFPRPYWKYAYWGQGTQVTVSS”, the “polyreactivity (PSR sort gate)” value was “low polyreactivity”.
The entry for “QVQLVESGGGLVQAGGSLRLSCAASGFTFESYTMGWYRQAPGKESELVAAINSGTSTYYADSVKGRFTISRDNAKNTVYLQMNSLKPEDTAVYYCNARRYRRYRKYDYWGQGTQVTVSS” is “high polyreactivity”; for “QVQLVESGGGLVQAGGRLRFSCADSGITFLRYAIGWSRQAPGKERELVAGISYTGGSTNYADSVKGRFTISRDNAKNTVYLQMNSLKPEDSSVYYCAAQGYRWYDYWGQGTQVTVSS” it is “high polyreactivity”; for “QVQLVESGGGLVQAGGSLRLSCAASGRIFWYYAMGWYRQAPGKDWELVATITYSGVRTYYADSVKGRFTISRDNAKNSVYLQMNSLKPEDTAVYYCAAVPGASVYGYYWKFGYWGQGTQLTVSS” it is “high polyreactivity”.
The value for “QVQLVESGGGLVQAGGRRRLSCAASGSTYNPYPMGWYRQAPGKERELLATITWRGTSTYYADSVKGRFTISRDNAKYTVYLQMNSLKPEDTAVYYGAKGFVYNYPKTYKSYSTYYYWGQGTQVTVSS” was “high polyreactivity”; that for “QVQLVESVGGLVQAGGSLRLSCAASGITFLQYAMGWYIQAPGKERELVATINSGGSTNYADSVKGRFTISRDNAKNTVYLQMNSLKPEDTAVYYCAADYGSDYTKGDYWGQGTQVTVSS” was “low polyreactivity”.
As to “QVQLVESGGGLGQAGGSLRLSCAASGLIFGLYAMGWYRQAPGKERELVAAISYRTDSTYADSVKGRFTISRDNAKNTVYLQMNSLKPEDTAVYYCAADLRVSVRYYYWGQGTQVTVSS”, the “polyreactivity (PSR sort gate)” value is reported as “low polyreactivity”.
The entry for “QVQLHESGGGLVQAGGSLRLSCAASGTISVTYNMGWYRQAPGKEREFVAGNSTGATTNYADSVKGRFTISRDNAKNTVYLQMNSLKPEDTAVYYCAAHIYRQDHFYYWGQGTQVTVSS” is “low polyreactivity”.
The value for “QVQLVESGGGLVQAGGSLRLSCAASGSIFWGNDMGWYRQAPGKERELVAGIRNSGTSTYYADSVKGRFTISRDHAKNTVYLQMNSLKPEDTAVYYCAAADGRQYSRYYWRGHDYWGQGTQVTVSS” was “low polyreactivity”; that for “QVQLVESGGGLVQAGGSLPLSCAASGFIFTSNAMGWYRQAPGKERELVASISGNGGRTNYADSVKGRFTISRDNAKNTVYLQMNSLKPDDTAVYYCAARVRRFLNRVSRYPHDYWGQGTQVTVSS” was “high polyreactivity”; that for “QVQLVESGGGLVQAGGSLRLSSAASGRIFNGNAMGWSRQSPGKERELVAAISSGGRTYYADSVKGRFTISRDNAKNTVYLQMNSLKPEDTEVYYCAARVILTTYSRNYYYWGQGTQVTVSS” was “high polyreactivity”.
The value for “QVQLVESGGGLVQAGGILRLICAASGRIFGPYAMGWYRQAPGKERELVADITGGGTYYADSVKGRFTISRDNAKNTVYLQMFSLKPEDTSVYYCAADYSSYTSFRYDYWGQGTHVTVSS” was “low polyreactivity”.
“QVQLVESGGALVQAGRSLRLSCAASGSIFSSYAMGRYRQAPGKERELVAAISRSGGRTYYADSVKGRFTITRDNAKNTVYLQMNSLKTEDTAVYYCAARRVLGEYGYWGQGTQVTVSS”: the “polyreactivity (PSR sort gate)” value is listed as “high polyreactivity”.
On to “QVQLVESGVGLVQAGGSLRLSCAASGTTIVSYAMGWYRQAPGKEMEFVATISISGTSTYYADSVKGRFTISRDNAKNTVYLQMNSLKPEDTAVYYCAARLRPRGATQFYRYDYWGQGTQVTVSS”, for which the “polyreactivity (PSR sort gate)” value is “high polyreactivity”.
On to “QVQLVESGGGLVQAGGSLRLSCAASGNIFSYYAMGWYRQAPGKERELVAAISSGGSTYYADSVKGRFTISRDNAKNTVYLQMNSLKPEDTAVYYCATSYFSYFFYEYYSWGQGTQVTVSS”, for which the “polyreactivity (PSR sort gate)” value is “low polyreactivity”.
The value for “QVQLVESGGGLVQAGGSLRISCAASGFIYTRYTMGWYRQAPGKERELVAVINSSGGSTYYADSVKGRFTISRDNAKNTVYLQMNSLKPEDTAVYYCNALSRYRIWSYGYWGPGTQVTVSS” was “high polyreactivity”; that for “QVQLVESGGGLVQAGGSLRLSCAASGRTFSANAMGWYRQAPGKDRELVAANRRTGGRTYYADSVKGRFTISRDNAKNTDYLQMNSLKPEDTAVYYCKAVNKPYTREYGYDYWGQGTQGTVSS” was “high polyreactivity”; that for “QVQLVESGGGLVQAGGSLRLSCAASGFIFFTYAMGWYRQAPGKERELVAAISSRGGSTYYADSVKGRFTISRDNAKNTVYLQMNSLKPEDTAVYYCADRTRRRRGEYDYWGQGTQVTVSS” was “high polyreactivity”.
The value for “QVQLVESGGGLVQAGGSLRLSCAAPGSIFGTNAMGWYRQAPGKERELVAAINWSGGTTYYADSVKGRFTISRDNAKNTVYLQMNSLKPEDTAVYYCATVFFVLPPTRFDSWGQGTQVTVSS” was “low polyreactivity”; that for “QVQLVESGGGLVQAGGSLRLSCAATGGLFNVYVMGWYRQAPGKERELVAAITWRGGSTYYADSVKGRFTISRDNAKNTVYLQMNSLKPEDTAVYYCNADAPFQSSSDGYQVEYWGQGTQVTVSS” was “low polyreactivity”; that for “QVQLVESGGGLVQAGGSLRLSCAASGSTFHDKAMGWYRQAPGKERELVAAITKTAGSTYYADSVKGRFTISRDNAKNTVYLQMNSMKPEDTAVYYCNAKTYHSRRKVLRFDYWGQGTQVTVSS” was “low polyreactivity”.
The value for “QVKLVESGGGLVQAGGSLRLSCAASGSTFHVYAMGWYRQEPGKESELVAGITSSGYSTYYADSVKGRFTISRDNAKNTVYLKMNSLKPEDTAFYYCNADIRGPYYYHRYDYWGQGTQVTVSS” was “low polyreactivity”; that for “QDQLVESGGGLVQAGGSLRLSCAASGSIFADYAMGWYRQAPGKERELVAVISRRGGTTYYADSVKGRFTISRDNAKNTVYLQMNSLKPEDTAVYYCAARRSFNEYDSWGHGTQVTVSS” was “high polyreactivity”.
For the sequence “QVQLVESGGGLVQAGGSLRLSCAASGRISQNAMGWYRQAPGKERELVAAITFSGGSTYYADSVKGRFTISRDNAKNTVYFQMNSLKPEDTAVYYCNADWPAQWHYYDSKQDDYWGQGTQVTVSS”, the “polyreactivity (PSR sort gate)” value was “low polyreactivity”.
The entry for “QVQLVESGGGLVQAGGSLRLSCAASGSTIYFNAMGWYRQAPGKERELVAAIDWSGGSTYYADSVKGRFTISRDNAKNTFYLHMNSLKPEDTAVYYCAAAYHYYGNTVGYADYDYWGQGNQVTVSS” is “low polyreactivity”; for “QVQLVESGGGLVQAGGSLRLSCAASGSIFGKNAMGWYRQAPGKERELVAAISATGSRTYYADSVKGRFTISRDNAKNTVYLQMISLKPEETAVYSCTKLVRGVRPEEYDYGGQGTQVTVSS” it is “high polyreactivity”.
As to “QVQLVESGGGLVHAGGSLRLSCAASGFIFGSYTMVWYRTAPGKERELVATITLSDGSTYYADSVNGRFTISRDNANNTVFLQMNSLKPEDTAVYYCNKDKVVVRYDYWGQGTQVTVSS”, the “polyreactivity (PSR sort gate)” value is “low polyreactivity”.
The entry for “QVQLVESGGGLVQAGGSLRLSCAASGSIFISYAMGWYRQAPGKERELVAAITSGGRTNYADSVKGRFTISRDNAKNTVYLQMNSLKPEDTAVYYCAKRQSHSRKYDYWGQGTQVTVSS” is “low polyreactivity”.
The value for “QVQLVESGGGLVQAGGSLRLSCAASGRIFKYYAMGWYRPAPWKKRELVATISVSGGRTYYADSVKGRFTISRDNAKNTVYLQMNSLKPEDTAVYYCAAYSVIRRRVEYGYWGQGTQVTVSS” was “high polyreactivity”; that for “QVQLVESGGGLVQAGGSLRLSCAASGFTLWLNAMGWSRQAPGKERELVAAITTSDDGTYYADSVNGRFTISRDTAKNTVYLQMNSLKPEDTAVYYCAADYYSVLYDYWGQGTQVTVSS” was “low polyreactivity”; that for “QVQLVESGGGLVQAGGSLRLSCAASGSTFFYYTMGWYIQAPGKERELVADITRGGGTTYYADSVKGRFTISRDNAKNTVYLQMNSLKPEDTAVYYCNAPYPNARYWTGWGYYYWGQGTQVTVSS” was “high polyreactivity”.
The value for “QVQLVESGGGLVQAGGSLRLSCAASGRILFFNAMGWYRQAPGKERELVAAISVSGGSTYYADSVKGRFTISRDNAQNTVYLQMNSLKPEDTAVYYCAKGYDFRRRYDYWGQGTQVTVSS” was “low polyreactivity”; that for “QVQLVESGGGLVQAGGSLRLSCAASGFIFFRNAMGWYRQAPGKERELVAAISGSGGSTYYADSVKGRFTISRDNAKNTVYLQLNSLKPEDTAVYYCAAAGPFNYDYWGQGTHVTVSS” was “high polyreactivity”.
